Assay results from patent publication US11001824.

T1: denatured bovine pancreatic Ribonuclease B, P61823
T1 chain: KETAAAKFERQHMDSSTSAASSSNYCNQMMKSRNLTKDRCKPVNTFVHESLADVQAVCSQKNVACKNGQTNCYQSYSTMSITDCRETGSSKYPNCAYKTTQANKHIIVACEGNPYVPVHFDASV


Target: T1, denatured bovine pancreatic …

| Protein | Deglycosylation Activity on RNase B (gel shift assay) | N-glycanase activity assay (gel shift) |
| --- | --- | --- |
| wild-type PNGase F from Flavobacterium meningosepticum (protein) GIPAPADNTVNIKTFDKVKNAFGDGLSQSAEGTFTFPADVTAVKTIKMFIKNECPNKTCDEWDRYANVYVKNKTTGEWYEIGRFITPYWVGTEKLPRGLEIDVTDFKSLLSGNTELKIYTETWLAKGREYSVDFDIVYGTPDYKYSAVVPVVQYNKSSIDGVPYGKAHTLALKKNIQLPTNTEKAYLRTTISGWGHAKPYDAGSRGCAEWCFRTHTIAINNSNTFQHQLGALGCSANPINNQSPGNWTPDRAGWCPGMAVPTRIDVLNNSLIGSTFSYEYKFQNWTNNGTNGDAFYAISSFVIAKSNTPISAPVVTNLDPHHHHHH | 100% | PNGase F completely de-glycosylates 1 µg of RNase B under the assay conditions described |
| PNGase F D60A single point mutant (protein) GIPAPADNTVNIKTFDKVKNAFGDGLSQSAEGTFTFPADVTAVKTIKMFIKNECPNKTCDEWARYANVYVKNKTTGEWYEIGRFITPYWVGTEKLPRGLEIDVTDFKSLLSGNTELKIYTETWLAKGREYSVDFDIVYGTPDYKYSAVVPVVQYNKSSIDGVPYGKAHTLALKKNIQLPTNTEKAYLRTTISGWGHAKPYDAGSRGCAEWCFRTHTIAINNSNTFQHQLGALGCSANPINNQSPGNWTPDRAGWCPGMAVPTRIDVLNNSLIGSTFSYEYKFQNWTNNGTNGDAFYAISSFVIAKSNTPISAPVVTNLDPHHHHHH | 13.4% |  |
